*1 amine or outer side, *2 acyl side, *3 side chain or, on linkers, in order; H or OH if unused. Where no end group is shown, it is not given here. Side-chain parts run from the residue outwards. [ ]: non-standard residue; d: D form. The star is where a group is joined. C18 diacid = O=C(O)CCCCCCCCCCCCCCCCC(=O)*; C16 diacid = O=C(O)CCCCCCCCCCCCCCC(=O)*; γGlu = O=C(O)[C@H](CCC(=O)[*:2])N[*:1]; NMeI = CC[C@H](C)[C@H](NC)C(=O)O; Abu = CC[C@H](N)C(=O)O; Dap = NC[C@H](N)C(=O)O; AEEA = NCCOCCOCC(=O)O
T1: CRF1R receptor (UniProt P34998 24-415, limits assumed)
T1 sequence (looked up): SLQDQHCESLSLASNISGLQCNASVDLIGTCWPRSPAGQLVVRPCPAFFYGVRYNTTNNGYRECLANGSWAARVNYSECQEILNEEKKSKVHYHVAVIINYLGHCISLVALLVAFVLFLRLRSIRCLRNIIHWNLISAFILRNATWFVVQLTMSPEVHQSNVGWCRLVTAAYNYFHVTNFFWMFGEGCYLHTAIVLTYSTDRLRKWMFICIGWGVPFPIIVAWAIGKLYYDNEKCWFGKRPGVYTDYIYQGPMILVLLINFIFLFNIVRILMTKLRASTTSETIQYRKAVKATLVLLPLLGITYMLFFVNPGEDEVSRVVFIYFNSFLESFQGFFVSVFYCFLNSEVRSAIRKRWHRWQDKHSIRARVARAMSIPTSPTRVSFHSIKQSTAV

B1: SEQ ID NO 70 (peptide)
peptide: [NMeI]VLSLD[dV]PIKLK([γGlu-C16 diacid])KILLEQEKQKKQREQAETN[Dap]QILAQV-NH2
modifications: N-terminus assumed
SMILES: CC[C@H](C)[C@H](NC)C(=O)N[C@H](C(=O)N[C@@H](CC(C)C)C(=O)N[C@@H](CO)C(=O)N[C@@H](CC(C)C)C(=O)N[C@@H](CC(=O)O)C(=O)N[C@@H](C(=O)N1CCC[C@H]1C(=O)N[C@H](C(=O)N[C@@H](CCCCN)C(=O)N[C@@H](CC(C)C)C(=O)N[C@@H](CCCCNC(=O)CC[C@H](NC(=O)CCCCCCCCCCCCCCC(=O)O)C(=O)O)C(=O)N[C@@H](CCCCN)C(=O)N[C@H](C(=O)N[C@@H](CC(C)C)C(=O)N[C@@H](CC(C)C)C(=O)N[C@@H](CCC(=O)O)C(=O)N[C@@H](CCC(N)=O)C(=O)N[C@@H](CCC(=O)O)C(=O)N[C@@H](CCCCN)C(=O)N[C@@H](CCC(N)=O)C(=O)N[C@@H](CCCCN)C(=O)N[C@@H](CCCCN)C(=O)N[C@@H](CCC(N)=O)C(=O)N[C@@H](CCCNC(=N)N)C(=O)N[C@@H](CCC(=O)O)C(=O)N[C@@H](CCC(N)=O)C(=O)N[C@@H](C)C(=O)N[C@@H](CCC(=O)O)C(=O)N[C@H](C(=O)N[C@@H](CC(N)=O)C(=O)N[C@@H](CN)C(=O)N[C@@H](CCC(N)=O)C(=O)N[C@H](C(=O)N[C@@H](CC(C)C)C(=O)N[C@@H](C)C(=O)N[C@@H](CCC(N)=O)C(=O)N[C@H](C(N)=O)C(C)C)[C@@H](C)CC)[C@@H](C)O)[C@@H](C)CC)[C@@H](C)CC)C(C)C)C(C)C
B2: SEQ ID NO 69 (peptide)
peptide: [NMeI]VLSLD[dV]PIKLK([γGlu-C16 diacid])KILLEQEKQKKQREQAETN[Abu]QILAQV-NH2
modifications: N-terminus assumed
SMILES: CC[C@H](NC(=O)[C@H](CC(N)=O)NC(=O)[C@@H](NC(=O)[C@H](CCC(=O)O)NC(=O)[C@H](C)NC(=O)[C@H](CCC(N)=O)NC(=O)[C@H](CCC(=O)O)NC(=O)[C@H](CCCNC(=N)N)NC(=O)[C@H](CCC(N)=O)NC(=O)[C@H](CCCCN)NC(=O)[C@H](CCCCN)NC(=O)[C@H](CCC(N)=O)NC(=O)[C@H](CCCCN)NC(=O)[C@H](CCC(=O)O)NC(=O)[C@H](CCC(N)=O)NC(=O)[C@H](CCC(=O)O)NC(=O)[C@H](CC(C)C)NC(=O)[C@H](CC(C)C)NC(=O)[C@@H](NC(=O)[C@H](CCCCN)NC(=O)[C@H](CCCCNC(=O)CC[C@H](NC(=O)CCCCCCCCCCCCCCC(=O)O)C(=O)O)NC(=O)[C@H](CC(C)C)NC(=O)[C@H](CCCCN)NC(=O)[C@@H](NC(=O)[C@@H]1CCCN1C(=O)[C@H](NC(=O)[C@H](CC(=O)O)NC(=O)[C@H](CC(C)C)NC(=O)[C@H](CO)NC(=O)[C@H](CC(C)C)NC(=O)[C@@H](NC(=O)[C@@H](NC)[C@@H](C)CC)C(C)C)C(C)C)[C@@H](C)CC)[C@@H](C)CC)[C@@H](C)O)C(=O)N[C@@H](CCC(N)=O)C(=O)N[C@H](C(=O)N[C@@H](CC(C)C)C(=O)N[C@@H](C)C(=O)N[C@@H](CCC(N)=O)C(=O)N[C@H](C(N)=O)C(C)C)[C@@H](C)CC
B3: SEQ ID NO 130 (peptide)
peptide: Ac-IVLSLD[dV]PIKLK([γGlu-C18 diacid])KILLEQEKQKKQREQAETNEQILAQV-NH2
SMILES: CC[C@H](C)[C@H](NC(C)=O)C(=O)N[C@H](C(=O)N[C@@H](CC(C)C)C(=O)N[C@@H](CO)C(=O)N[C@@H](CC(C)C)C(=O)N[C@@H](CC(=O)O)C(=O)N[C@@H](C(=O)N1CCC[C@H]1C(=O)N[C@H](C(=O)N[C@@H](CCCCN)C(=O)N[C@@H](CC(C)C)C(=O)N[C@@H](CCCCNC(=O)CC[C@H](NC(=O)CCCCCCCCCCCCCCCCC(=O)O)C(=O)O)C(=O)N[C@@H](CCCCN)C(=O)N[C@H](C(=O)N[C@@H](CC(C)C)C(=O)N[C@@H](CC(C)C)C(=O)N[C@@H](CCC(=O)O)C(=O)N[C@@H](CCC(N)=O)C(=O)N[C@@H](CCC(=O)O)C(=O)N[C@@H](CCCCN)C(=O)N[C@@H](CCC(N)=O)C(=O)N[C@@H](CCCCN)C(=O)N[C@@H](CCCCN)C(=O)N[C@@H](CCC(N)=O)C(=O)N[C@@H](CCCNC(=N)N)C(=O)N[C@@H](CCC(=O)O)C(=O)N[C@@H](CCC(N)=O)C(=O)N[C@@H](C)C(=O)N[C@@H](CCC(=O)O)C(=O)N[C@H](C(=O)N[C@@H](CC(N)=O)C(=O)N[C@@H](CCC(=O)O)C(=O)N[C@@H](CCC(N)=O)C(=O)N[C@H](C(=O)N[C@@H](CC(C)C)C(=O)N[C@@H](C)C(=O)N[C@@H](CCC(N)=O)C(=O)N[C@H](C(N)=O)C(C)C)[C@@H](C)CC)[C@@H](C)O)[C@@H](C)CC)[C@@H](C)CC)C(C)C)C(C)C
B4: SEQ ID NO 115 (peptide)
peptide: [NMeI]VLSLD[dV]PIKLK([AEEA-AEEA-γGlu-C18 diacid])KILLEQEKQKKQREQAETN[Dap]QILAQV-NH2
modifications: N-terminus assumed
SMILES: CC[C@H](C)[C@H](NC)C(=O)N[C@H](C(=O)N[C@@H](CC(C)C)C(=O)N[C@@H](CO)C(=O)N[C@@H](CC(C)C)C(=O)N[C@@H](CC(=O)O)C(=O)N[C@@H](C(=O)N1CCC[C@H]1C(=O)N[C@H](C(=O)N[C@@H](CCCCN)C(=O)N[C@@H](CC(C)C)C(=O)N[C@@H](CCCCNC(=O)COCCOCCNC(=O)COCCOCCNC(=O)CC[C@H](NC(=O)CCCCCCCCCCCCCCCCC(=O)O)C(=O)O)C(=O)N[C@@H](CCCCN)C(=O)N[C@H](C(=O)N[C@@H](CC(C)C)C(=O)N[C@@H](CC(C)C)C(=O)N[C@@H](CCC(=O)O)C(=O)N[C@@H](CCC(N)=O)C(=O)N[C@@H](CCC(=O)O)C(=O)N[C@@H](CCCCN)C(=O)N[C@@H](CCC(N)=O)C(=O)N[C@@H](CCCCN)C(=O)N[C@@H](CCCCN)C(=O)N[C@@H](CCC(N)=O)C(=O)N[C@@H](CCCNC(=N)N)C(=O)N[C@@H](CCC(=O)O)C(=O)N[C@@H](CCC(N)=O)C(=O)N[C@@H](C)C(=O)N[C@@H](CCC(=O)O)C(=O)N[C@H](C(=O)N[C@@H](CC(N)=O)C(=O)N[C@@H](CN)C(=O)N[C@@H](CCC(N)=O)C(=O)N[C@H](C(=O)N[C@@H](CC(C)C)C(=O)N[C@@H](C)C(=O)N[C@@H](CCC(N)=O)C(=O)N[C@H](C(N)=O)C(C)C)[C@@H](C)CC)[C@@H](C)O)[C@@H](C)CC)[C@@H](C)CC)C(C)C)C(C)C
B5: SEQ ID NO 114 (peptide)
peptide: [NMeI]VLSLD[dV]PIKLK([AEEA-AEEA-γGlu-C18 diacid])KILLEQEKQKKQREQAETN[Abu]QILAQV-NH2
modifications: N-terminus assumed
SMILES: CC[C@H](NC(=O)[C@H](CC(N)=O)NC(=O)[C@@H](NC(=O)[C@H](CCC(=O)O)NC(=O)[C@H](C)NC(=O)[C@H](CCC(N)=O)NC(=O)[C@H](CCC(=O)O)NC(=O)[C@H](CCCNC(=N)N)NC(=O)[C@H](CCC(N)=O)NC(=O)[C@H](CCCCN)NC(=O)[C@H](CCCCN)NC(=O)[C@H](CCC(N)=O)NC(=O)[C@H](CCCCN)NC(=O)[C@H](CCC(=O)O)NC(=O)[C@H](CCC(N)=O)NC(=O)[C@H](CCC(=O)O)NC(=O)[C@H](CC(C)C)NC(=O)[C@H](CC(C)C)NC(=O)[C@@H](NC(=O)[C@H](CCCCN)NC(=O)[C@H](CCCCNC(=O)COCCOCCNC(=O)COCCOCCNC(=O)CC[C@H](NC(=O)CCCCCCCCCCCCCCCCC(=O)O)C(=O)O)NC(=O)[C@H](CC(C)C)NC(=O)[C@H](CCCCN)NC(=O)[C@@H](NC(=O)[C@@H]1CCCN1C(=O)[C@H](NC(=O)[C@H](CC(=O)O)NC(=O)[C@H](CC(C)C)NC(=O)[C@H](CO)NC(=O)[C@H](CC(C)C)NC(=O)[C@@H](NC(=O)[C@@H](NC)[C@@H](C)CC)C(C)C)C(C)C)[C@@H](C)CC)[C@@H](C)CC)[C@@H](C)O)C(=O)N[C@@H](CCC(N)=O)C(=O)N[C@H](C(=O)N[C@@H](CC(C)C)C(=O)N[C@@H](C)C(=O)N[C@@H](CCC(N)=O)C(=O)N[C@H](C(N)=O)C(C)C)[C@@H](C)CC
B6: SEQ ID NO 128 (peptide)
peptide: Ac-IVLSLD[dV]PIKLK([γGlu-C18 diacid])KILLEQEKQKKQREQAETN[Dap]QILAQV-NH2
SMILES: CC[C@H](C)[C@H](NC(C)=O)C(=O)N[C@H](C(=O)N[C@@H](CC(C)C)C(=O)N[C@@H](CO)C(=O)N[C@@H](CC(C)C)C(=O)N[C@@H](CC(=O)O)C(=O)N[C@@H](C(=O)N1CCC[C@H]1C(=O)N[C@H](C(=O)N[C@@H](CCCCN)C(=O)N[C@@H](CC(C)C)C(=O)N[C@@H](CCCCNC(=O)CC[C@H](NC(=O)CCCCCCCCCCCCCCCCC(=O)O)C(=O)O)C(=O)N[C@@H](CCCCN)C(=O)N[C@H](C(=O)N[C@@H](CC(C)C)C(=O)N[C@@H](CC(C)C)C(=O)N[C@@H](CCC(=O)O)C(=O)N[C@@H](CCC(N)=O)C(=O)N[C@@H](CCC(=O)O)C(=O)N[C@@H](CCCCN)C(=O)N[C@@H](CCC(N)=O)C(=O)N[C@@H](CCCCN)C(=O)N[C@@H](CCCCN)C(=O)N[C@@H](CCC(N)=O)C(=O)N[C@@H](CCCNC(=N)N)C(=O)N[C@@H](CCC(=O)O)C(=O)N[C@@H](CCC(N)=O)C(=O)N[C@@H](C)C(=O)N[C@@H](CCC(=O)O)C(=O)N[C@H](C(=O)N[C@@H](CC(N)=O)C(=O)N[C@@H](CN)C(=O)N[C@@H](CCC(N)=O)C(=O)N[C@H](C(=O)N[C@@H](CC(C)C)C(=O)N[C@@H](C)C(=O)N[C@@H](CCC(N)=O)C(=O)N[C@H](C(N)=O)C(C)C)[C@@H](C)CC)[C@@H](C)O)[C@@H](C)CC)[C@@H](C)CC)C(C)C)C(C)C

Columns and labels:
[1] = target: human corticotropin-releasing factor 2a (CRF2a receptor) (human), Q13324; assay: cell-based or functional assay
[2] = target: T1, CRF1R receptor; assay: cell-based or functional assay

human corticotropin-releasing factor 2a (CRF2a receptor) (human), Q13324, sequence (Q13324 20-411): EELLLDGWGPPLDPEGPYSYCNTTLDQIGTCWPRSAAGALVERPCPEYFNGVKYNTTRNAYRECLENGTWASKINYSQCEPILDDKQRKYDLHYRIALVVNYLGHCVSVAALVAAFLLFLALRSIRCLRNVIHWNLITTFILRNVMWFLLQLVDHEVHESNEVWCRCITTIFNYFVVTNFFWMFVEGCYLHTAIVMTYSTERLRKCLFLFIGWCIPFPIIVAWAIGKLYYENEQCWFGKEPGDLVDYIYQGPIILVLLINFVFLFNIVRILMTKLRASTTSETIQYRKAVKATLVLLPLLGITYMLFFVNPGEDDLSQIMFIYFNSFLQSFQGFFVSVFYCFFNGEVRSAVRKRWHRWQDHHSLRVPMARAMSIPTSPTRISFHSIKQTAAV

| Binder | EC50 [nM] (cAMP) [1] | Emax (% I) [2] |
| --- | --- | --- |
| B1 | 0.17 nM | 0% |
| B2 | 0.09 nM | 3% |
| B3 | 0.08 nM | 4% |
| B4 | 0.76 nM | 4% |
| B5 | 0.18 nM | 6% |
| B6 | 0.17 nM | 10% |
